This assay has as its target T1, N-terminal fluorescein-labeled ubiquitin (UniProt P0CG48 1-76, fluorescein on the N-terminus).
T1 construct: source: bought: Anaspec
The experiment in a line: fluorescence polarisation; 1 uM fluorescein-labeled ubiquitin with varied concentrations of UBE3A HECT domain, 384-well plate, 30 °C; one-site specific binding model. Particulars: both partners purified.

B1: UBE3A HECT domain, wild type (domain or fragment, human, UniProt Q05086-2 495-852, looked up)
chain: QLNPYLRLKVRRDHIIDDALVRLEMIAMENPADLKKQLYVEFEGEQGVDEGGVSKEFFQLVVEEIFNPDIGMFTYDESTKLFWFNPSSFETEGQFTLIGIVLGLAIYNNCILDVHFPMVVYRKLMGKKGTFRDLGDSHPVLYQSLKDLLEYEGNVEDDMMITFQISQTDLFGNPMMYDLKENGDKIPITNENRKEFVNLYSDYILNKSVEKQFKAFRRGFHMVTNESPLKYLFRPEEIELLICGSRNLDFQALEETTEYDGGYTRDSVLIREFWEIVHSFTDEQKRLFLQFTTGTDRAPVGGLGKLKMIIAKNGPDTERLPTSHTCFNVLLLPEYSSKEKLKERLLKAITYAKGFGML
notes: UBE3A, human, HECT domain; residue numbers follow human UBE3A isoform I (NP_001361390.1); Cloned into pRSFDuet-1 with an octa-histidine-GST double tag and a TEV site; also called WT HECT domain; WT UBE3A; not shown: His8, N-terminal, cleaved; GST, N-terminal, cleaved
As to B1, binding was put at a Kd of 65.7 ± 28.5 µM.

B2: UBE3A HECT domain Q588E (domain or fragment, human, UniProt Q05086-2 1-852, looked up)
chain: QLNPYLRLKVRRDHIIDDALVRLEMIAMENPADLKKQLYVEFEGEQGVDEGGVSKEFFQLVVEEIFNPDIGMFTYDESTKLFWFNPSSFETEGEFTLIGIVLGLAIYNNCILDVHFPMVVYRKLMGKKGTFRDLGDSHPVLYQSLKDLLEYEGNVEDDMMITFQISQTDLFGNPMMYDLKENGDKIPITNENRKEFVNLYSDYILNKSVEKQFKAFRRGFHMVTNESPLKYLFRPEEIELLICGSRNLDFQALEETTEYDGGYTRDSVLIREFWEIVHSFTDEQKRLFLQFTTGTDRAPVGGLGKLKMIIAKNGPDTERLPTSHTCFNVLLLPEYSSKEKLKERLLKAITYAKGFGML
notes: UBE3A, human, HECT domain with the patient variant Q588E; residue numbers follow human UBE3A isoform I (NP_001361390.1); Made by site-directed mutagenesis of the m1 construct; Q588E is a variant found in individuals (ClinVar); also called Q588E HECT domain; UBE3A Q588E; not shown: His8, N-terminal, cleaved; GST, N-terminal, cleaved
Consider B2, for which the Kd came out at 18 ± 1.5 µM. This Kd is about 3.7-fold lower than that of the molecule before.

Values taken from publication PMC8635412, “Identification of disease-linked hyperactivating mutations in UBE3A through large-scale functional variant analysis” (Nature Communications, 2021).
